The record followed here is patent US20230052153A1 (NEWSOUTH INNOVATIONS, published 2023).

In the assay the target is T1, human FcγRIIa receptor (human, UniProt P12318 34-317).
T1 construct: whole, on cells; also called CD32
T1 sequence (looked up): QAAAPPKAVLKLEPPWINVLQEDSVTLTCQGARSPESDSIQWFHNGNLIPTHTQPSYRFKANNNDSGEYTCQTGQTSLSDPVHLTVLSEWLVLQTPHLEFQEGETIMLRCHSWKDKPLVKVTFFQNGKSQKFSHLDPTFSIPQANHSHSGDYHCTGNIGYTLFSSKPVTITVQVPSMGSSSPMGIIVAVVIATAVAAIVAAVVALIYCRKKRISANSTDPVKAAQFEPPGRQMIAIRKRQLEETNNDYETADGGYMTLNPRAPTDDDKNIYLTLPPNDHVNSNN
Description: flow cytometry on human platelets, 2 µM scFv, detected with anti-c-Myc-AF-488. On the procedure:
Platelet-rich plasma (PRP) was obtained from whole blood after centrifugation at 200×g for 10 minutes. Washing/Suspension buffer (PBS, 0.5% BSA, 25 mM EDTA, pH 6.8) was used for platelet preparation throughout the experiment. 4 μl of PRP was incubated with HRU molecules (2 μM) for 30 minutes. Cells were washed once with 500 μl of buffer (PBS, 0.5% BSA, 25 mM EDTA, pH 6.8) and incubated with anti-c-Myc-AF-488. After washing, platelets were suspended in 200 μl of PBS and analyzed by flow cytometry (CantoII, BD Biosciences). Anti-c-Myc-AF-488 in the absence of HRU was used as negative control.
(In flow cytometry, cells or beads pass a laser one at a time.)

B1: HRU4 (HRU1 with mutations) (scFv)
scFv: EVQLVESGPELKKPGETVKISCKASGYTFTNYGMNWVKQAPGKGLKWMGWLNTYTGESIYPDDFKGRFAFSLETSASTAYLQINNLKSEDTATYFCARGDYGYDDPLDYWGQGTSVTVSSGGGGSGGGGSGGGGSDIVMTQAPPSVPVTPGESVSISCRSSKSLLHTNGNTYLHWFLQKPGQSPRLLIYRMSVLASGVPDRFSGSGSGTDFTLKISRVEAEDVGVYYCMQHLEYPLTFGAGTKLEIKRAEQKLISEEDL
notes: also called H4
B1: the binding result is “binds”.

B2: HRU2 (HRU1 linked to bivalirudin) (scFv)
scFv: EVKLVESGPELKKPGETVKISCKASGYTFTNYGMNWVKQAPGKGLKWMGWLNTYTGESIYPDDFKGRFAFSLETSASTAYLQINNLKSEDTATYFCARGDYGYDDPLDYWGQGTSVTVSSGGGGSGGGGSGGGGSDIVMTQAPPSVPVTPGESVSISCRSSKSLLHTNGNTYLHWFLQRPGQSPRLLIYRMSVLASGVPDRFSGSGSGTAFTLSISRVEAEDVGVYYCMQHLEYPLTFGAGTKLEIKRAGGGGSGGGGSGGGGFPRPGGGGNGDFEEIPEEYL
notes: scFv fused to bivalirudin; also called H2
With B2, the binding result is “binds”.
